Results published in paper PMC11914429, “Reprograming of the ubiquitin ligase Ubr1 by intrinsically disordered Roq1 through cooperating multifunctional motifs” (The EMBO Journal, 2025).

Assays:
FLAG-Ubr1 = biological target: T1, FLAG-Ubr1 (S. cerevisiae, UniProt P19812 1-1950); test: BLI; biotinylated Rad6 immobilised on streptavidin biosensors, 100 nM soluble Ubr1, without or with 200 nM or 1 µM Roq1(22-104); essentially irreversible, only association analysed; conditions: both partners purified
T1 construct: ubiquitin ligase Ubr1 of yeast; single subunit of about 200 kDa, nearly 2000 residues; The purified protein comes from a strain with ubr1::nat-PGPD-FLAG-UBR1, so probably the whole protein; source: protease-deficient yeast expressing FLAG-Ubr1 (SSY2908), purified (anti-FLAG agarose, eluted with FLAG peptide); roq1 knockout yeast expressing FLAG-Ubr1, in lysate; not shown: FLAG, N-terminal, kept

FLAG-Ubr1, P19812 = biological target: T2, FLAG-Ubr1, P19812; test: biolayer interferometry; conditions: chain shown with the change; 50 nM Ubr1, association step 5 min; value read at end of association (300 s); 50 mM HEPES, 150 mM NaCl, 10 mM MgCl2, 0.05% Tween-20, 0.02% BSA; parent: est. 4.5; read off a plot
T2 chain: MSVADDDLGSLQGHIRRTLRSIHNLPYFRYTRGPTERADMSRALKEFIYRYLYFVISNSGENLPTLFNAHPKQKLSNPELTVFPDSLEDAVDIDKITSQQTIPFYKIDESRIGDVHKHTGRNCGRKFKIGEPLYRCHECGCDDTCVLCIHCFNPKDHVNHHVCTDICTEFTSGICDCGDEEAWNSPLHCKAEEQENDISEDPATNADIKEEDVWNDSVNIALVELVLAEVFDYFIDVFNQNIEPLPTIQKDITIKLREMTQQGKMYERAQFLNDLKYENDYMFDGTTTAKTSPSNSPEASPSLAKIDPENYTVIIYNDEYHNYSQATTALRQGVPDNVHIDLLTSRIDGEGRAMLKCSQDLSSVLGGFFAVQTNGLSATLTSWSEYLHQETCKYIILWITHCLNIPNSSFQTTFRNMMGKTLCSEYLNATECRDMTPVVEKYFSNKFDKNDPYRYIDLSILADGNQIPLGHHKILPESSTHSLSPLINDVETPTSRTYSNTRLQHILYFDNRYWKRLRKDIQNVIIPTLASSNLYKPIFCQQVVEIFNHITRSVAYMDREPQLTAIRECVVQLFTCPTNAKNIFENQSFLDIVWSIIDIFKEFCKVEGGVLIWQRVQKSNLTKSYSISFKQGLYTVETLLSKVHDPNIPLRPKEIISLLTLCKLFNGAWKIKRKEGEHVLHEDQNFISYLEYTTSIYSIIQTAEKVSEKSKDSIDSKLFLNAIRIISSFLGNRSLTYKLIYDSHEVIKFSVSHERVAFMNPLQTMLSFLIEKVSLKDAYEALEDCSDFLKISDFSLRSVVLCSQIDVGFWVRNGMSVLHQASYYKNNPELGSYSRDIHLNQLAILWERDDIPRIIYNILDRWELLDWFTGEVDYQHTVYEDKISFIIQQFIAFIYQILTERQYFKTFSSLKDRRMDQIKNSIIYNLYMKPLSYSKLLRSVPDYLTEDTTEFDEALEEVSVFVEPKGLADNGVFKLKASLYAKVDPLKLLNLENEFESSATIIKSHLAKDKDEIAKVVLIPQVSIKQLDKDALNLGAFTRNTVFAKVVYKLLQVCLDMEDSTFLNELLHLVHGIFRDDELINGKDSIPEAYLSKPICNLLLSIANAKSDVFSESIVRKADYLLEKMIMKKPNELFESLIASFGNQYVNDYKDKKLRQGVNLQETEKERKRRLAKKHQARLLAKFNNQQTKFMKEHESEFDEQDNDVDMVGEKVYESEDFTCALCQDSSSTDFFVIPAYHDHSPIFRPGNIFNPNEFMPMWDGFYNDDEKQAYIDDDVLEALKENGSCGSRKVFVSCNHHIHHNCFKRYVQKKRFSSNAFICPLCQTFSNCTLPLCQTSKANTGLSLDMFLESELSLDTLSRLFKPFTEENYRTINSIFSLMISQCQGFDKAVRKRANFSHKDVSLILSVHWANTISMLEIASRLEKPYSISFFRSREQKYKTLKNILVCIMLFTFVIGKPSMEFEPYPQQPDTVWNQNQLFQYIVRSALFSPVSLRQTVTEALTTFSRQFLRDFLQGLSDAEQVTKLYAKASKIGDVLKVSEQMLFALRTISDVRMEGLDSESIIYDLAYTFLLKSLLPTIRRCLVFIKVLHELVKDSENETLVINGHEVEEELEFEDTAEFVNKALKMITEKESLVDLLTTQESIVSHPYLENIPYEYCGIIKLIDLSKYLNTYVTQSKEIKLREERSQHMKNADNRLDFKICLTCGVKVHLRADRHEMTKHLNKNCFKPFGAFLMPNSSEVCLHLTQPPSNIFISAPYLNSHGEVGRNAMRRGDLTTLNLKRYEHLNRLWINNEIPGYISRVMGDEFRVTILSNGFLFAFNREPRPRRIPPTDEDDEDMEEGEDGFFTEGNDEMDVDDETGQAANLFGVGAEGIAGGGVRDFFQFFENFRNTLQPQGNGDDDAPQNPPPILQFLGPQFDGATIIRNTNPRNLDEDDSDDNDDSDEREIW

Binder | binding result (FLAG-Ubr1) | response (FLAG-Ubr1, P19812) [nm]
Rad6 (enzyme, UniProt P06104 1-172, looked up, biotin (amino-reactive NHS-PEG4-Biotin), ubiquitin-conjugating enzyme Rad6, not conjugated to ubiquitin; The plasmid pCA528-Rad6 was a gift (Axel Mogk); It is probably the yeast protein; also called unloaded Rad6; source: E. coli BL21(DE3), purified (His6-SUMO removed with Ulp1, SEC); not shown: His6-SUMO, N-terminal, cleaved) MSTPARRRLMRDFKRMKEDAPPGVSASPLPDNVMVWNAMIIGPADTPYEDGTFRLLLEFDEEYPNKPPHVKFLSEMFHPNVYANGEICLDILQNRWTPTYDVASILTSIQSLFNDPNPASPANVEAATLFKDHKSQYVKRVKETVEKSWEDDMDDMDDDDDDDDDDDDDEAD | binds | 
Roq1(22-104) R22A; Y55A; Y56A; F57A; V58A (protein) ASQRDQTRVDSLVEESPMGDFGINNQPTQPGVIAAAAELTNLGIQENTSSNNNNNNNHGDDENGSRYGHGSSLGGDVHSRRCS |  | 0
Roq1(22-104) Y55A; Y56A; F57A; V58A (protein) RSQRDQTRVDSLVEESPMGDFGINNQPTQPGVIAAAAELTNLGIQENTSSNNNNNNNHGDDENGSRYGHGSSLGGDVHSRRCS |  | 2
Roq1(22-104) R22A (protein) ASQRDQTRVDSLVEESPMGDFGINNQPTQPGVIYYFVELTNLGIQENTSSNNNNNNNHGDDENGSRYGHGSSLGGDVHSRRCS |  | 0.5
